# Measured values taken from the DeepSol protein solubility set.
# Assay: soluble on expression in E. coli; label from the status in PepcDB or PDB records
row,Sequence,soluble on expression in E. coli
1,GPGSMNPYYAAPPPPPQQQQSRPSVDLDDLFGGPTAANEHKPFHAAPGEPAPPSYDALNGGYSSAPPPAHHAAASEPQQSHNGNISGNQSLYYGAAHQQQQQQQSYGVPAAVPASASPYGMSSPPPAFSSSSSITPGTAPPLQPQPQQQQYGAYPAMPASGMAPPAPPLQQQPPQVYVQPQPQPQPMPGPVHQQQQSFAQNSSSSVSPSGAAAVAGPTAAAGVGSGAASSRSAEEEDRLQLERIIRLRRELELEQEREQRKKEELQTWGCPICTFRNKLNEVKCEMCGSTRPGYTAPASTEPPAQHQQQQHQPRPAATPSQVNAGVTDWQCGMCLAPNEAHAERCKVCYAYRSSGIPVPTASPSGAAANANHNGVVSNTPFTTNWKCSVCGEVNPPSKANCKVCSGFQRNGTAVTDAVPAPSTGSGHGAQATSSADPPLPTVWSCSVCTFENSVSAAVCKACESGQRPRHLAPKRDKEKSASSKQHDSRGSGAKDGGGDGEKKCSSSKSQWPCGTCTFLNPIGRKKCDMCGAKRPESYAAEADTTEARAAAKQEAQDDAEEVAWQDDDSVTECNNCHTTFTFLIRRHHCRLCGYVFCAHCSSYSVPLTMGSLPQRVCVNCYKARLEEEKKTKKARRWLDS,soluble
2,SAMLSSTMKIEALLTEKHINLNLGSSSKDEVIDTLIAMVADHDKVRDLKQLAEDVRKREREMSTGIGKNIGLPHAKTSAVTEPVLALATLSNEVDFESIDNQPVKIVFLLATPETMLAEHLKLLGRITRLAGRDDVRRKLIDAATPADVLELFKQEERDLPQI,not soluble
3,SSAAQPGVAFSVDNTIKRPNPAPGTRKKSSNAEVIKELNKCREENSMRLDLSKRSIHILPSSIKELTQLTELYLYSNKLQSLPAEVGCLVNLMTLALSENSLTSLPDSLDNLKKLRMLDLRHNKLREIPSVVYRLDSLTTLYLRFNRITTVEKDIKNLSKLSMLSIRENKIKQLPAEIGELCNLITLDVAHNQLEHLPKEIGNCTQITNLDLQHNELLDLPDTIGN,soluble
4,MGSDKIHHHHHHMLANLNQAMDYIEEHLTEEVSFDELAKKTGISVYHFKRTFSFITGMSLAEYIKKRPLAEANLALLAGEKVTDVAFKYGYQSIEGFSRAFRDWSGQAPSEVMKTQIQKTFPKFSFYIDIKGGQSMDVKLIEKPAFQIVGVSQKVPLQYQGENQAIMELAQRITPQQRAEMHTFDDIYPHQVVNASFDFQEGRTTEGGEMTHMIGFATSQENTYEDLEQLSVPAHTWAVFPNEGPFPQTLQETWAKIFSEWLPSSGYQVVAAPEISFTQYQGPAEAKYSEIWLAVTATK,not soluble
5,GPGSMSAVASDDSAGHVVDPVQHTHRYVQEHRLNELFGHLLQLVLYHRPDDPRAFLAEEVRKIREEKVSLSLFTERDLETMFEMIDATAQRWITVAQLRNTCRNLATASSAGNVSTGGGDLTAEQEAAIAGAGDAAGRVTMDKFKEVLSSLLLTKNKWS,soluble
6,MGSDKIHHHHHHMFIKLNKGLDLPISGEPEQCVYAATAVRHIAVAGVDYIDLKPTMKVTEGDRVRLGQPLFEYKKLPGVVFTAPGAGRIVAINRGTRRILLSVVLQLDEQEDEETFIKYAPDELSNLADEQVKENLLISGLWTTLRTRPYSKVPDPATRPAAIFITAIDSNPLAADPVPIITAEMESFNHGLRILSRLTDGPLWVCQSPQAKLSLPEDLPQLQQARFAGPHPAGLPGTHIHFLQPVSAYKTVWYLNYQEVIAIGKLFVTGRLWTERIVALGGPGVKKPRLLRTRLGASLEELLAGELVESMDKRVISGSVWSGRKAVDELAFLGRHHLQVTVIGEKSEREFLGWLNPGGNKYSKLNVLFSSFFRKKRKFEFTASQQGSPRAMIPIDTFEEVMPLDILPAQLLRALLVMDTDMAQKLGCLELDEEDLALCSFICVGKHDYGVILRENLRQIEKEG,not soluble
7,MGSDKIHHHHHHMSVRCASLSAMELTQATVNDLLAQLGPGDSYMYLPSDLDPQDLTDLLDGRYGAARTLVLDGFTDPTVDESRGAALLVPFEDRAVKIRAWAYGDQWVGTGTARDAKGAERPVLVVAHREVPEPLAVAPDEDEDVDWMERLIRITGWTRPAQRPDVDWAEVESRLGTALPSDYKRMVETFGEGAFDGYLDLNQEPWTDLRRDGLLIWAGTEHEDLYCWRADGDDPDRWPVVVRSFDNKDVPFDCQAAKFVCRILIDPHHPFTMARYFDTHWFMNYRESG,not soluble
8,SLLVENLKQLQERVAVSDGRAKADLVIKNGRIINVFSGEIMDGDIAIKNGYIAGIGNFPDAEKIIDAAGAFIAPGFIDAHVHVESAMVTPAEFARVLLPNGVTTIVTDPHEIANVAGEKGIEFMLEDAKGVPIDMFVMLPSSVPATEGEHNGETLHAEKLHPLYRHEKVIGLAEVMDFPSVAKGSSDILTKIIDAKKEGGRIDGHGAGLTSADLNNYLAVGIRTDHESTTAKEATDRLRAGMFVMLREGTVGRDLLQTIPAVSEKNSHRFCFCTDDKLINDLITEGSINFNIRLAIKNGIDPITAIQMATINAANCHNLPYLGAVAAGYQADIVFLTDIETVEISKVLKNGEVVVDNGVRHEAAFKQQAAVPFVSPPINHHVSLQDLALPLTKETCYVIGMQPNSLFTEKRIEQVAIQDGKFVPTVENDLLKMAVVERHHDTGCVGLGIVKGFGLTEGAIATTVAHDSHNIVAVGISDEAMKAAIDHITQTGGGIAVVNGAGQVLHDLALPIAGLLSDKSYEEVENDLAGLLNAFKQISTADGFDPFLTLSFLTLPVIPELKLTDQGLFDFATFQIISNEVN,soluble
9,MKETNAGSVYSPELIEFATVGVEFCALVEQAAAHRTTDFIDKASKVLPLLYLKTALLPPYEYSEEVDFVEEYITEESYEQVRSAVESLLGSYDSFLDARHSDMQYSDTPVGASIGECLADVYQQVGNLLGVVRQSNDRAIPQAIGRCLTYFGEYWGNRLLAAAGALHELRYSEVYRTWEEEERAED,soluble
10,GPGSMAMMLHTRRTVYSCICVHTHTHTHTCGCPPPTLSQKKKRSRLFMSSSSGDEYDPAEVTVHTTVASPSLSDTVVPSAAPFLRSAAGNASAATVAAAPALASLPKTAASVLPSSSSPTPPNTGNDVDGGYRLHSNIKGRIRCLTLNTAGTTLCAGSEDGQLCMWDFTVPLKSYRVQPTRVLTPFVNRISGLQPIIALTCASDDSYFVACQDGDSPVLVRASGEQLGYCAIGERGLMDVIQCKGHRAPVTCVAAHTHDAAAFFTGSQDGTVRLWNTATFKQRSVYAVKHGSGQLTDTHAVESVASLDSFHNGLGRVFASGGQDGRVQIWDSRVKYRPGGAIATVDMYAAAAPAGPDKVTEDPFMEKHVGGMMELHQKDAGASNASGSYGLAVRLGSAVKIIDLPQLSHSDGTTAPKAVLQERLPGCPTCSTRALCRLGAVVGLQQ,soluble
11,MDYREVDSTSEFVCRLEHGGDWRAQIEAFADEQGIDAGFFYGLGAVQDAELMFYDQDRTEYDSLTFDEPLEVAACMGNISHFDGERFAHTHAVLSRPDGEAVAGHLNAGTVWAGELYVRGFDTELQREHDEPTDLDLWNILEHHHHHH,not soluble
12,MYDVLDSQSVLEVLRPVQDPELRKSLVELNMIRNVKIDGGQVSFTLVLTTPACPLREFIVEDCQRAVKKLPGVTDVSVEVTAETPQQKSLPDRNGVPGVKNIIAISSGKGGVGKSTVAVNVAVALAQTGAKVGLLDADIYGPNDPTMLGLGDAQIVVRSTEKGEVLEPAFNHGVKLVSMGFLIDRDQPVIWRGPMLNGVIRQFLYQVEWGELDYLIVDMPPGTGDAQLTLTQAVPMSGAVIVTTPQNVALLDSRKGLRMFQQMNVAVLGIVENMSYFIPPDMPDKHYDIFGSGGGSKTAAELGVPLLGCIPLEISTRIGGDNGVPIVVADPDSASAKALKAIALTIAGKVSVAALTLEHHHHHH,soluble
13,MWQNFYLTTLKLSQYTQEEKPILPADNMDPRALASVHAWEHGDFMCKGYIQSRLSDPLYNVYSNVETSNELWDSLDKKYQTKDAGSQKYAAAKFLDYKMVDSRPMMVQVEELTCLFHDI,soluble
14,GFLSHLDIVSTFNDHLAQRHDLDPYTVTLTVREGGEVVYIGCRNSAQPLGHTFRIGMRLPAPFTATGKILLSDLGPGELRMLFSQFPQPLTSRSVAGLSQLEEELALTRARGYSIDDGQIREGMLCIGAAIRDYSGAASAGIAISLIRSEASDEKIASLGEELRTTANALSEKLGYRSQKD,soluble
15,DIKMTQSPSSMYASLGERVTITCKASQDINSYLNWFQQKPGKSPKTLIYRTNRLVDGVPSRFSGSGSGQDYSLTISSLEYEDMGIYYCLQYDEFPYTFGSGTKLEIKRTVAAPSVFIFPPSDEQLKSGTASVVCLLNNFYPREAKVQWKVDNALQSGNSQESVTEQDSKDSTYSLSSTLTLSKADYEKHKVYACEVTHQGLSSPVTKSFNR,soluble
